Assay [1] concerns the target T1, 人CLDN18.2(hCLDN18.2) (human, UniProt P56856 24-261). The assay is described as follows: cell-based or functional assay.
For assay [2], the target named is T1, 人CLDN18.2(hCLDN18.2). The assay is described as follows: cell-based or functional assay. The source holds these as a separate data set.
In another assay the target is T2, 人CLDN18.1(hCLDN18.1) (human, UniProt P56856 1-261).
T2 construct: also called human claudin-18 isoform 1; 密蛋白18.1
T2 sequence: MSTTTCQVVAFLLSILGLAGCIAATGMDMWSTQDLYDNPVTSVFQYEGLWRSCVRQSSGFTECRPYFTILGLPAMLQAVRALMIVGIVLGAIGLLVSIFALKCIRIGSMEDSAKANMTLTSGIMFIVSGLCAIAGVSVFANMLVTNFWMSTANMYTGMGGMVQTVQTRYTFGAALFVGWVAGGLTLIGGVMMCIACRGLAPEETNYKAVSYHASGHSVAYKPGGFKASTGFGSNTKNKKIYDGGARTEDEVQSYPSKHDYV
In words: cell ELISA on fixed hCLDN18.1+cell. (In general: An ELISA detects its analyte on a solid surface through an enzyme-linked reagent.)

A further assay concerns the target T3, 鼠CLDN18.2(mCLDN18.2) (mouse, UniProt P56857 10-264).
T3 construct: also called mouse claudin-18 isoform A2.1; mCLDN18.2+cell
T3 chain: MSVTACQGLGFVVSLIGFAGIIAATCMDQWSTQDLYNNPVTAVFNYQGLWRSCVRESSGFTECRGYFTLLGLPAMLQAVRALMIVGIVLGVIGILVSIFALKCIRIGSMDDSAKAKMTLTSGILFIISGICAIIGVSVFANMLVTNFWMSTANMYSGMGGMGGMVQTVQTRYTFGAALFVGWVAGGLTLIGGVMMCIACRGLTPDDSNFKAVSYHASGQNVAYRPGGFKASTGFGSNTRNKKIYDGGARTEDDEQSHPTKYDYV
The assay is described as follows: cell ELISA on fixed mCLDN18.2+cell.

The next assay deals with T4, 鼠CLDN18.1(mCLDN18.1) (mouse, UniProt P56857 1-264).
T4 construct: also called mouse claudin-18 isoform A1.1; mCLDN18.1+cell
T4 sequence: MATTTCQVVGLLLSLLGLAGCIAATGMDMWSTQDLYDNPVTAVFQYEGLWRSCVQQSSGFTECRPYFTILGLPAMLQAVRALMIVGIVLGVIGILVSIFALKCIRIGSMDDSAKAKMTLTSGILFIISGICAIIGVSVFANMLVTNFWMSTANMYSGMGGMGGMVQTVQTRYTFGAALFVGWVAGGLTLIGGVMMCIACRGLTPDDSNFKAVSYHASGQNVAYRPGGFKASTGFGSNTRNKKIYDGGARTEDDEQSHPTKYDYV
In words: cell ELISA on fixed mCLDN18.1+cell.

Residue numbers refer to the chain shown, from its start. Where two headings read alike, the source gives them in different places.

B1: Ab24抗体 (antibody, human IgG1, kappa, V domains shown)
VH: QVQLVQSGAEVKKPGSSVKVSCKASGYAFSNYLIEWVRQAPGQGLEWMGLINPGSGGTNYNEKFKGKVTITADKSTSTAYMELSSLRSEDTAVYYCARVYYGNTFAYWGQGTLVTVSS
VL: DIVMTQSPDSLAVSLGERATINCKSSQSLLNTGNNKNYLAWYQQKPGQPPKLLIYWASTRESGVPDRFSGSGSGTDFTLTISSLQAEDVAVYYCQNDYFYPFTFGQGTKLEIKR
For the molecule B1, the results for the “CDC EC50 (LDH release, human serum, hCLDN18.2+ target cells)” value (from here on “CDC EC50”) with 人CLDN18.2(hCLDN18.2) [1] and in the assay with 人CLDN18.2(hCLDN18.2) [2] were 0.255 µg/mL and 1.3 µg/mL, respectively.

B2: Ab36抗体 (antibody, human IgG1, kappa, V domains shown)
VH: B1 VH with R38K, M48I, V68A
VL: B1 VL with N22S
For B2, in the assay with 人CLDN18.2(hCLDN18.2) [2], the “CDC EC50” value was 1.75 µg/mL.

B3: Ab51抗体 (antibody, human IgG1, kappa, V domains shown)
VH: B1 VH with K67R, K74E
VL: B1 VL
As for B3, in the assay with 人CLDN18.2(hCLDN18.2) [2], the “CDC EC50” value was found to be 2.12 µg/mL.

B4: anti-hCLDN18.2鼠源抗体mab5b (antibody, human IgG1, kappa, V domains shown)
VH: QVQLQQSGAELIGPGTSVKVSCKASGYAFSNYLIEWVKQRPEQGLEWIGLINPGSGGTNYNEKFKGKATLTADKSSSTAYMQLSSLTSDDSAVYFCARVYYGNSFAYWGQGTLVTVSA
VL: DIVMTQSPSSLTVTAGEKVTMSCKSSQSLLNSGNQKNYLTWYQQKPGQPPKLLIYWASTRESGVPDRFTGSGSGTHFTLTISSVQAEDLAVYYCQNDYFYPFTFGSGTKLEKKR
For B4, in the assay with 人CLDN18.1(hCLDN18.1), the binding result is recorded as “no binding (tested: 200nM)”. Also, in the assay with 鼠CLDN18.2(mCLDN18.2), the “fold better binding (EC50) than Ref” value is over 4 fold and the “fold higher Emax than Ref” value is over 1 fold. For the same molecule, the binding result in the assay with 鼠CLDN18.1(mCLDN18.1) is on record as “no binding (tested: 200nM)”.

Values taken from patent CN111110862A (dated 2020).
